# According to article PMC10726167:
# Target: FIV Pr50^Gag-His6-tagged protein (feline immunodeficiency virus Gag precursor polyprotein) (feline immunodeficiency virus (Petaluma strain 34TF10))
# Test: dynamic light scattering; purified Pr50^Gag in solution, HEPES-KOH buffer (pH 8); hydrodynamic radius from volume and number distribution
substance,measurement,value
FIV Pr50^Gag-His6-tagged protein (feline immunodeficiency virus Gag precursor polyprotein) (natural protein),stoichiometry N,2
